This is an account of results in publication PMC9513805, “A natural transdifferentiation event involving mitosis is empowered by integrating signaling inputs with conserved plasticity factors”.

The target in series [1] is T1, HMG-POP-1 (Caenorhabditis elegans, UniProt Q10666 181-281).
T1 sequence: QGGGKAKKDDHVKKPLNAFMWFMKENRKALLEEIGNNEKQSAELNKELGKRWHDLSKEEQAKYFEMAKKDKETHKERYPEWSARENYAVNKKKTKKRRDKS
Description: EMSA; 20 mM Tris-HCl pH 8.0, 100 mM NaCl, 100 ug/mL BSA, 1 mM EDTA, 1 mM DTT, 0.1% NP-40; 20 min on ice (supershift 30 min at room temperature), 200 ng Cy5 probe; 6%. To be noted: protein: recombinant; tags: N-terminal 6xHis (pSJ769); label: Cy5 on forward strand; blunt. In general terms: Mobility shift assays separate free from complexed probe on a gel.

The target in series [2] is SOX-2 (Caenorhabditis elegans, UniProt Q21305 1-283). Described as above. The following applies: protein: recombinant; tags: N-terminal 6xHis, C-terminal HA (pSJ6094); label: Cy5 on forward strand; blunt.
SOX-2, sequence (Q21305 whole entry): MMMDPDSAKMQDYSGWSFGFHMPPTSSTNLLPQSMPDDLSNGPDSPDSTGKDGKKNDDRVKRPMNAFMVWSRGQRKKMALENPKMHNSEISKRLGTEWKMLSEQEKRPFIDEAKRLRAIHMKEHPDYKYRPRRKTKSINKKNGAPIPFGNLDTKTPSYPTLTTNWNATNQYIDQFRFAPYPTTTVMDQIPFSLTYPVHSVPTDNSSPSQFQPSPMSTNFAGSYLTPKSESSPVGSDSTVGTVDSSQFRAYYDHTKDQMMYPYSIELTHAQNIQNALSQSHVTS

B1: lim-6 intron 4 probe 2 (dsDNA)
DNA 1: CTGCTACCGTAGTGCTTTGTTGATTTAACACACA
DNA 2: TGTGTGTTAAATCAACAAAGCACTACGGTAGCAG
In the case of B1, the binding result in series [1] and in series [2] was “binds” in each case.

B2: lim-6 intron 4 probe 1 (dsDNA)
DNA 1: TACGATTTGCAAACAACAAACATTCCAGACAGAT
DNA 2: ATCTGTCTGGAATGTTTGTTGTTTGCAAATCGTA
As to B2, the binding result in series [1] and in series [2] was “binds” throughout.
